Assay results taken from PMC5469797, “Discovery of a novel conformational equilibrium in urokinase-type plasminogen activator” (Scientific Reports, 2017).

Biological target: T1, full-length muPA inhibited at the active site with Glu-Gly-Arg-chloromethylketone (Mus musculus, UniProt P06869, irreversible active site binding ligand Glu-Gly-Arg-chloromethylketone (EGR-cmk) in the active site)
T1 construct: as m2; source: HEK293 6E suspension cells, purified by nickel-Sepharose chromatography; reacted with EGR-cmk
Assay: SPR; BiaCore T100, 22 °C, curves fitted to a 1:1 binding model; who was immobilised is not told (SI Methods)
Conditions: both partners purified

T1 sequence (P06869 21-433): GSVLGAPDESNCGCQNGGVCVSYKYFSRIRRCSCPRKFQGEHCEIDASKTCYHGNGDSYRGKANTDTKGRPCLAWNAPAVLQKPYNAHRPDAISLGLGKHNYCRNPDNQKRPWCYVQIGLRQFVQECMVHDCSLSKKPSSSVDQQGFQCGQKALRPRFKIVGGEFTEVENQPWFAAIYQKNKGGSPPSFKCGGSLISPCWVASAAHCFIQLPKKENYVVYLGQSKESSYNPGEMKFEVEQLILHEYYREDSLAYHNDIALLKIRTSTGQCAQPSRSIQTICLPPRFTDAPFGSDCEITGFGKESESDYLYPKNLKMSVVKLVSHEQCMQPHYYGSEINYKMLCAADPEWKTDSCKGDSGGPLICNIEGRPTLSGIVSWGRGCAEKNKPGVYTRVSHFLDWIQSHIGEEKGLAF

B1: anti-muPA allosteric nanobody Nb7 (VHH)
VHH: QVQLQESGGGLVQPGGSLRLSCAASGFTLGYYAIGWFRRAPGKEREGVSCISSSGGSTNYADSVKGRFTISRDNAKNTVDLQMNSLKPEDTAIYYCAAEWVPPGYGATVQALCNNAGYGMEYWGKGTQVTVSS
notes: from an immunised alpaca phage library; All residues of Nb7 were visible in the electron density of 5LHN; source: E. coli WK6 (su-), produced as described previously
fold change of KD against muPA without EGR-cmk: 1.5 fold
